Our source for the Kd values is PMC6517398, “Selection of a novel DNA aptamer against OFA/iLRP for targeted delivery of doxorubicin to AML cells”.

In this data set the target is T1, OFA/iLRP extracellular epitope peptide (UniProt P08865).
T1 chain: NQIQAAFREPR
Nature of the data set: flow cytometry of coated beads; PBS (pH not stated), 200 uL, 30 min, room temperature; 2x10^5 coated beads with 20-40 pmol FAM-ssDNA (cells: 40-60 pmol); washed once or twice with PBS. The following applies: label: FAM (5' in selection primer); single strand, 59 nt. A general note: In flow cytometry, cells or beads pass a laser one at a time.

What is called Kd is the concentration at which binding is half-saturated. The low end stands for tighter binding, the high end for weaker binding.

B1: AB3 (ssDNA)
DNA: TGCGTGTGTAGTGTGTCTGTTGTTTGTATTGTTGTCTATCCTCTTAGGGATTTGGGCGG
As for B1, the Kd was found to be 101 nM.
